Laboratory results reported in PMC8857470, “Molecular insights into the maturation of phosphodiesterase 6 by the specialized chaperone complex of HSP90 with AIPL1” (The Journal of Biological Chemistry, 2022).

Target: Avi-tagged HSP90β (full-length human HSP90β, residues 1–724) (human) (UniProt P08238)
Sequence (P08238 whole entry, the tested form may be a part): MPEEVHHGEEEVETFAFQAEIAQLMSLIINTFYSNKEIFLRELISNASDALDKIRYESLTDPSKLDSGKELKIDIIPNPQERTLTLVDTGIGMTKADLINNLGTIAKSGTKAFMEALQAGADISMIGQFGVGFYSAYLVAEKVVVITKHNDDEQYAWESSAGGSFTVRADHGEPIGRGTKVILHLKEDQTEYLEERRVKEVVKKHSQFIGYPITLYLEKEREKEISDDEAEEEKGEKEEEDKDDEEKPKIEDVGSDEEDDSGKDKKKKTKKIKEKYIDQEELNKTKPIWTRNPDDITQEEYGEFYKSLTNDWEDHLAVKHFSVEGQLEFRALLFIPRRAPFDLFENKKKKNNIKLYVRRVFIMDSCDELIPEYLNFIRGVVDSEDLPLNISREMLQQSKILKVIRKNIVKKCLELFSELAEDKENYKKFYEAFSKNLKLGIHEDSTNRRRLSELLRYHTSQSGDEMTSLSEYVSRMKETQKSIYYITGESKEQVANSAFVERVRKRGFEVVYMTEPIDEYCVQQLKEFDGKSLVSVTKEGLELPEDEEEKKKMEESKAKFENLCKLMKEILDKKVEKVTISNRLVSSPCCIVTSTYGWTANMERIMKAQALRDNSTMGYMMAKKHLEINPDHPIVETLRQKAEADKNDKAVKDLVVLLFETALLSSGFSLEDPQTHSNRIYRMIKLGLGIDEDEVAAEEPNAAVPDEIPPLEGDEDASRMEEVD

cGMP hydrolysis (PDE6 activity) in lysates of HEK293T cells cotransfected with PDE6C, Pγ and the AIPL1 mutant (nmol•min^−1• mg^−1) | Binder
8.8 | AIPL1-K265A (natural protein) MDVSLLLNVEGVKKTILHGGTGELPSFITGSRVTFHFRTMKCDDERTVIDDSKQVGQPMSIIIGNMFKLEVWETLLTSMRLGEVAEFWCDTIHTGVYPMLSRSLRQVAEGKDPTSWHVHTCGLANMFAYHTLGYEDLDELQKEPQPLVFLIELLQVEAPNEYQRETWNLNNEERMQAVPLLHGEGNRLYKLGRYDQAATKYQEAIVCLRNLQTKEKPWEVEWLKLEKMINTLILNYCQCLLKKEEYYEVLEHTSDILRHHPGIVAAYYMRARAHAEVWNAEEAKADLEKVLELEPSMRKAVLRELRLLESRLADKQEEERQRCRSMLG
3 | AIPL1-K265W (natural protein) MDVSLLLNVEGVKKTILHGGTGELPSFITGSRVTFHFRTMKCDDERTVIDDSKQVGQPMSIIIGNMFKLEVWETLLTSMRLGEVAEFWCDTIHTGVYPMLSRSLRQVAEGKDPTSWHVHTCGLANMFAYHTLGYEDLDELQKEPQPLVFLIELLQVEAPNEYQRETWNLNNEERMQAVPLLHGEGNRLYKLGRYDQAATKYQEAIVCLRNLQTKEKPWEVEWLKLEKMINTLILNYCQCLLKKEEYYEVLEHTSDILRHHPGIVWAYYMRARAHAEVWNAEEAKADLEKVLELEPSMRKAVLRELRLLESRLADKQEEERQRCRSMLG
